Measurements taken from patent US20230212319A1, “NOVEL ANTIGEN BINDING DOMAINS AND SYNTHETIC ANTIGEN RECEPTORS INCORPORATING THE SAME” (University of Southern California, priority 2020, published 2023).

B1: 21989 (protein)
chain: MALPVTALLLPLALLLHAARPQVQLVESGGGLVQPGGSLRLSCAASGFTFTNHAMSWVRQAPGKGLELVSSISGNGRTTYYADSVKGRFTISRDISKNTLDLQMNSLRAEDTAVYYCAKDGGETLVDSRGQGTLVTVSSLEDLKNVFPPEVAVFEPSEAEISHTQKATLVCLATGFYPDHVELSWWVNGKEVHSGVCTDPQPLKEQPALNDSRYCLSSRLRVSATFWQNPRNHFRCQVQFYGLSENDEWTQDRAKPVTQIVSAEAWGRADCGFTSESYQQGVLSATILYEILLGKATLYAVLVSALVLMAMVKRKDSRGRAKRSGSGATNFSLLKQAGDVEENPGPTSMDWIWRILFLVGAATGAHSFEEVQLLESGGGLVQPGGSLRLSCAASGFTFSSYAMSWVRQAPGKGLEWVSSISGSGDYIYYADSVKGRFTISRDISKNTLYLQMNSLRAEDTAVYYCAKEGTGANSSLADYRGQGTLVTVSSTRIQNPDPAVYQLRDSKSSDKSVCLFTDFDSQTNVSQSKDSDVYITDKCVLDMRSMDFKSNSAVAWSNKSDFACANAFNNSIIPEDTFFPSPESSCDVKLVEKSFETDTNLNFQNLSVIGFRILLLKVAGFNLLMTLRLWSSRAKRSGSGVKQTLNFDLLKLAGDVESNPGPSRGHMTEYKPTVRLATRDDVPRAVRTLAAAFADYPATRHTVDPDRHIERVTELQELFLTRVGLDIGKVWVADDGAAVAVWTTPESVEAGAVFAEIGPRMAELSGSRLAAQQQMEGLLAPHRPKEPAWFLATVGVSPDHQGKGLGSAVVLPGVEAAERAGVPAFLETSAPRNLPFYERLGFTVTADVEVPEGPRTWCMTRKPGA
B2: 21988 (protein)
chain: MALPVTALLLPLALLLHAARPEVQLLESGGGLVQPGGSLRLSCAASGFTFSSYAMSWVRQAPGKGLEWVSSISGSGDYIYYADSVKGRFTISRDISKNTLYLQMNSLRAEDTAVYYCAKEGTGANSSLADYRGQGTLVTVSSLEDLKNVFPPEVAVFEPSEAEISHTQKATLVCLATGFYPDHVELSWWVNGKEVHSGVCTDPQPLKEQPALNDSRYCLSSRLRVSATFWQNPRNHFRCQVQFYGLSENDEWTQDRAKPVTQIVSAEAWGRADCGFTSESYQQGVLSATILYEILLGKATLYAVLVSALVLMAMVKRKDSRGRAKRSGSGATNFSLLKQAGDVEENPGPTSMDWIWRILFLVGAATGAHSFEVQLLESGGGLIQPGGSLRLSCAASGFTFSSHAMTWVRQAPGKGLEWVSAISGSGDYTHYADSVKGRFTISRDNSKNTVYLQMNSLRAEDSAVYYCAKDEDGGSLLGHRGQGTLVTVSSTRIQNPDPAVYQLRDSKSSDKSVCLFTDFDSQTNVSQSKDSDVYITDKCVLDMRSMDFKSNSAVAWSNKSDFACANAFNNSIIPEDTFFPSPESSCDVKLVEKSFETDTNLNFQNLSVIGFRILLLKVAGFNLLMTLRLWSSRAKRSGSGVKQTLNFDLLKLAGDVESNPGPSRGHMTEYKPTVRLATRDDVPRAVRTLAAAFADYPATRHTVDPDRHIERVTELQELFLTRVGLDIGKVWVADDGAAVAVWTTPESVEAGAVFAEIGPRMAELSGSRLAAQQQMEGLLAPHRPKEPAWFLATVGVSPDHQGKGLGSAVVLPGVEAAERAGVPAFLETSAPRNLPFYERLGFTVTADVEVPEGPRTWCMTRKPGA

Tested on: L363 cells
Test: JNG assay, co-culture with L363 cells
Assay type: cell-based
Details: co-culture with L363
Method: Cellular supernatant is collected and assayed for the induction of cytokines (e.g., IL2).
JNG (Jurkat cells expressing EGFP under an NFAT promoter) were infected with lentiviral vectors encoding different single chain and multi-chain SARs by spinfection in the presence of 8 µg/ml of Polybrene® (Sigma, Catalog no. H9268). The Jurkat-NFAT-GFP cells are engineered in such a way that the IL-2 promoter, which carries NFAT binding sites, is cloned upstream of the GFP gene. These cells have been used to study signaling via TCR and CAR. The different SARs were stably expressed in Jurkat NFAT-GFP cells by lentiviral mediated gene transfer, followed by selection with puromycin or blasticidin. No drug selection was used in case the construct lacked an antibiotic resistance gene. The SAR-expressing Jurkat-NFAT-GFP cells were cocultured with the target cells at E:T ratio of approximately 1:2 for approximately 4 hours to 18 hours. When the interaction between SIRs and their target antigen results in activation of the NFAT pathway, GFP expression is induced. […] GFP expression was monitored by FACS analysis. The Jurkat-NFAT-GFP (parental) cells were used as control. The structure of different constructs can be determined based on their names. […] The sequence of the other constructs in the table can be similarly determined from their names and by referring to the different Tables of this disclosure that provide the names and SEQ ID NO of the different modules. Alternatively, the composition and modular architecture of the different SAR constructs can be determined from their sequences by bioinformatics tools, including using nucleic acid and amino acids homology searches. A SAR is considered positive in the assay in case the SAR expressing Jurkat-NFAT-GFP cells show greater % GFP positive cells when cultured with the target cell line as compared to parental Jurkat-NFAT-GFP cells. […] In general, the number +/-, +, 2+, 3+, 4+, 5+ refer to approximately 5%, 10%, 20%, 30%, 40% and 50% GFP positive cells. The % of GFP induction in the above assay is dependent not only the relative strength of the SAR but also, among other factors, on the relative level of expression of the SAR in the JNG cells and the relative level of expression of the target antigen in the target cell line. To control for the difference in gene transduction efficiency of the different SAR constructs, the experiment was conducted with JNG cells transduced with SAR constructs co-expressing a drug resistance gene (e.g., puromycin or PAC) followed by drug selection to generate a stable population of SAR-expressing cells. It is to be noted that the drug resistance gene (e.g., PAC) in the SAR constructs is optional and in vivo studies were conducted with SAR constructs lacking the PAC gene.

| Molecule | NFAT-GFP ASSAY: L363 |
| --- | --- |
| B1 | + (refer to approximately 5%, 10%, 20%, 30%, 40% and 50% GFP positive cells) |
| B2 | + (refer to approximately 5%, 10%, 20%, 30%, 40% and 50% GFP positive cells) |
